Source: the supplement of paper PMC12855868

B1: library; numbered along this chain (parent)
chain: MAAAGGARLLRAASAVLGGPAGRWLHHAGSRAGSSGLLRNRGPGGSAEASRSLSVSARARSSSEDKITVHFINRDGETLTTKGKVGDSLLDVVVENNLDIDGFGACEGTLACSTCHLIFEDHIYEKLDAITDEENDMLDLAYGLTDRSRLGCQICLTKSMDNMTVRVPETVADARQSIDVGKTS

Variants of: B1
Experiment: scaled log2 fold change in cell abundance, elesclomol vs control (0 = silent mean, 1 = nonsense mean) (scaled log2 ratio); higher = higher viability under elesclomol (loss of FDX1 cuproptosis function)
Settings: glucose 10 mM
Method: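 Deep mutational scan of full-length human FDX1: a pooled saturation-mutagenesis ORF library (every residue 2-184 mutated to all 19 amino acids plus stop, and silent codons where available) was expressed by lentivirus in FDX1-knockout ABC1 (14 days) or HEK293T (11 days) cells grown with elesclomol (ES) or DMSO control. Variant abundance came from ORF sequencing. The log2 fold change (ES vs control, mean of duplicates) was centred on the silent-variant mean (0) and scaled to the nonsense-variant mean (1). Higher values mean greater viability under ES, i.e. loss of FDX1 function in cuproptosis.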

[1] = with ABC1 FDX1 KO, elesclomol 5 nM, 14 days
[2] = with HEK293T FDX1 KO, elesclomol 40 nM, 11 days
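Further: variant abundance is its share of total variant reads in each endpoint sample, from next-generation sequencing of the integrated ORF PCR-amplified out of genomic DNA.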

Variant | scaled log2 fold change [1] | scaled log2 fold change [2]
G42A | -0.139 | 0.0969
G42I | 0.277 | 0.513
G42F | -0.0705 | -0.21
G42S | 0.232 | -0.298
G42T | 0.268 | 0.377
G42L | 0.249 | 0.513
G42Q | 0.242 | -0.336
G42C | 0.12 | 0.316
G42H | 0.257 | -0.419
G42N | 0.133 | -0.235
P43V | 0.149 | 0.888
P43N | 0.14 | 1.24
P43H | 0.442 | -0.548
P43S | -0.443 | -0.3
P43T | 0.0182 | -0.259
P43L | 0.34 | 1.08
P43D | -0.289 | -0.259
P43W | -0.19 | 0.313
P43Q | 0.274 | -0.32
P43E | 0.224 | 0.236
P43R | 0.273 | 0.259
P43F | -0.0201 | 0.822
P43M | 0.182 | 0.0394
P43K | 0.0332 | 0.445

Variant | scaled log2 fold change [1] | scaled log2 fold change [2]
P43I | 0.392 | -0.356
P43Y | 0.138 | 0.846
P43G | 0.283 | 0.825
P43C | -0.0655 | 0.841
P43A | -0.0498 | 1.29
A47F | 0.852 | 1.03
A47P | 0.733 | 0.555
A47W | 0.856 | 0.727
A47G | 0.844 | 0.78
A47N | 0.833 | 1.56
A47Y | 0.8 | 0.534
A47E | 0.691 | 0.694
A47L | 0.835 | 0.437
A47Q | 0.722 | 0.93
A47K | 0.89 | 0.778
A47H | 0.813 | 1.05
A47M | 0.779 | 0.799
A47V | 0.764 | 0.63
A47C | 0.788 | 1.53
A47I | 0.83 | 0.523
A47S | 0.89 | 0.276
A47D | 0.728 | 0.746
A47R | 0.994 | 1.12
A47T | 0.83 | 0.802

Variant | scaled log2 fold change [1] | scaled log2 fold change [2]
G45M | 0.116 | -0.315
G45F | -0.17 | -0.167
G45T | 0.167 | -0.525
G45N | 0.148 | 0.842
G45V | 0.149 | -0.648
G45P | -0.0714 | -0.0345
G45K | 0.0509 | -0.713
G45W | 0.411 | 0.942
G45D | -0.348 | 0.907
G45A | 0.315 | -0.00746
G45H | 0.0762 | 0.865
G45R | 0.363 | -0.475
G45Q | 0.0494 | 0.513
G45C | 0.409 | -0.145
G45S | 0.0305 | -0.567
G45Y | 0.16 | 0.922
G45E | 0.346 | 1.07
G45I | -0.00298 | -0.325
G45L | 0.411 | -0.007
S50M | -0.234 | 
S50A | -0.353 | 0.141
S50N | 0.219 | -0.357
S50H | 0.126 | 0.0217
S50W | -0.149 | 

Variant | scaled log2 fold change [1] | scaled log2 fold change [2]
S50R | -0.0286 | 0.0212
S50K | -0.433 | 
S50E | 0.344 | 0.116
S50L | -0.847 | 
S50T | 0.208 | 
S50C | 0.19 | 0.37
S50G | 0.758 | 
S50Y | -0.231 | 0.499
S50I | 0.293 | -1.28
S50P | -0.659 | 
S50D | -0.421 | -0.999
N40C | -0.214 | 1.09
N40Y | -0.412 | -0.381
N40S | 0.213 | 0.0876
N40P | -0.752 | 0.374
N40M | -0.291 | 0.304
N40E | 0.118 | 
N40V | 0.408 | -0.147
N40W | -0.166 | -0.235
N40Q | -0.307 | 0.243
N40D | -0.359 | -0.577
N40R | 0.387 | 0.0477
N40I | 0.554 | -0.704
N40K | -0.0431 | 0.421

Variant | scaled log2 fold change [1] | scaled log2 fold change [2]
N40T | -0.748 | -0.708
N40L | -0.507 | 0.239
N40F | -0.01 | 0.266
E48M | 0.829 | 0.835
E48D | 0.623 | 0.469
E48T | 0.74 | -0.184
E48I | 0.367 | 0.905
E48R | 0.787 | 0.683
E48G | 0.667 | 0.934
E48Q | 0.747 | 0.877
E48C | 0.731 | 0.336
E48V | 0.47 | 0.255
E48H | 0.521 | 0.92
E48P | 0.619 | 0.304
E48L | 0.58 | 1.05
E48S | 0.616 | 0.679
E48F | 0.809 | 0.523
E48A | 0.411 | 0.683
E48W | 0.73 | 0.677
E48N | 0.628 | 1.08
E48Y | 0.494 | 1.46
E48K | 0.46 | 0.746
